Source: doi:10.1101/2024.10.30.620795 (2024)

T1: A*01/LTD peptide on A*01/LTD (human)
T1 peptide: LTDEMIAQY

B1: 6548 (TCR)
alpha TRAV12-3 TRAJ33 CDR3: CASRSNYQLIW
beta TRBV6-1 TRBJ1-5 CDR3: CASSDAQAPQHF
B2: 5469 (TCR)
alpha TRAV12-2 TRAJ53 CDR3: CAVNWGGGSNYKLTF
beta TRBV29-1 TRBJ2-7 CDR3: CSVGQGWPYEQYF
B3: 7894 (TCR)
alpha TRAV5 TRAJ39 CDR3: CAQNAGNMLTF
beta TRBV27 TRBJ1-1 CDR3: CASSLAPNTEAFF
B4: 718 (TCR)
alpha TRAV3 TRAJ45 CDR3: CAVRQTGGGADGLTF
beta TRBV29-1 TRBJ2-2 CDR3: CSVPGLVYPGELFF
B5: 5170 (TCR)
alpha TRAV12-3 TRAJ33 CDR3: CAMRSNYQLIW
beta TRBV6-1 TRBJ1-5 CDR3: CASSEAQGPQHF
B6: 6254 (TCR)
alpha TRAV21 TRAJ10 CDR3: CAVGGGGGNKLTF
beta TRBV11-2 TRBJ1-2 CDR3: CASSLLWVGDYGYTF
B7: 4160 (TCR)
alpha TRAV35 TRAJ21 CDR3: CAGLYNFNKFYF
beta TRBV19 TRBJ1-1 CDR3: CASSTLRGDNRGTEAFF
B8: 11870 (TCR)
alpha TRAV12-1 TRAJ9 CDR3: CVVNRGTGGFKTIF
beta TRBV27 TRBJ1-6 CDR3: CASMLASYNSPLHF
B9: 5226 (TCR)
alpha TRAV21 TRAJ49 CDR3: CAVRGNQFYF
beta TRBV6-2 TRBJ2-1 CDR3: CASSYVVVQGVPYNEQFF
B10: 11085.2 (TCR)
alpha TRAV2 TRAJ6 CDR3: CAVEDPAGGSYIPTF
beta TRBV20-1 TRBJ2-7 CDR3: CSARGATGDFYEQYF
B11: 2722 (TCR)
alpha TRAV21 TRAJ45 CDR3: CAVRGADGLTF
beta TRBV6-6 TRBJ2-7 CDR3: CASTNRASDSYEQYF
B12: 832 (TCR)
alpha TRAV13-1 TRAJ6 CDR3: CAAGSSGGSYIPTF
beta TRBV7-7 TRBJ2-1 CDR3: CASSLEGHRGLYNEQFF
B13: 201 (TCR)
alpha TRAV19 TRAJ4 CDR3: CALSLSGGYNKLIF
beta TRBV6-6 TRBJ2-7 CDR3: CASSQGVIDEQYF
B14: 1650 (TCR)
alpha TRAV13-1 TRAJ9 CDR3: CAAPPGGFKTIF
beta TRBV28 TRBJ2-1 CDR3: CASTTSTGAYNEQFF
B15: 7100 (TCR)
alpha TRAV21 TRAJ43 CDR3: CAVRGGDMRF
beta TRBV6-6 TRBJ2-7 CDR3: CASTNRGDISYEQYF
B16: 2058 (TCR)
alpha TRAV39 TRAJ49 CDR3: CAEGNQFYF
beta TRBV7-9 TRBJ2-1 CDR3: CASSLALAGRNYNEQFF
B17: 3155 (TCR)
alpha TRAV12-3 TRAJ33 CDR3: CAMRSNYQLIW
beta TRBV6-5 TRBJ2-1 CDR3: CASSYAQGAQFF
B18: 297 (TCR)
alpha TRAV12-2 TRAJ33 CDR3: CAVSQGGVSNYQLIW
beta TRBV29-1 TRBJ2-7 CDR3: CSVFTGWPYEQYF
B19: 41 (TCR)
alpha TRAV12-2 TRAJ53 CDR3: CAVGRGGGSNYKLTF
beta TRBV29-1 TRBJ2-7 CDR3: CSAHGGWPYEQYF
B20: 8395 (TCR)
alpha TRAV21 TRAJ45 CDR3: CAGGGGADGLTF
beta TRBV6-6 TRBJ2-3 CDR3: CASSYPSPDTQYF
B21: 11195 (TCR)
alpha TRAV19 TRAJ32 CDR3: CALRYGGATNKLIF
beta TRBV7-6 TRBJ1-2 CDR3: CASSLEGPYGYTF
B22: 66 (TCR)
alpha TRAV21 TRAJ41 CDR3: CAVQSSGSGYALNF
beta TRBV5-5 TRBJ2-7 CDR3: CASTKGTDSYEQYF
B23: 7094 (TCR)
alpha TRAV12-3 TRAJ33 CDR3: CAMRSNYQLIW
beta TRBV30 TRBJ2-7 CDR3: CAWRLQGAGEQYF
B24: 7156 (TCR)
alpha TRAV29/DV5 TRAJ49 CDR3: CAASGGNQFYF
beta TRBV5-5 TRBJ2-2 CDR3: CASSAPGGVDTGELFF
B25: 7287 (TCR)
alpha TRAV16 TRAJ17 CDR3: CALRSPAAGNKLTF
beta TRBV27 TRBJ2-5 CDR3: CASSFAEGTQYF
B26: 545 (TCR)
alpha TRAV38-1 TRAJ23 CDR3: CALRGNQGGKLIF
beta TRBV7-9 TRBJ2-7 CDR3: CASSPDGMHEQYF
B27: 6265 (TCR)
alpha TRAV30 TRAJ49 CDR3: CGTAPLTGNQFYF
beta TRBV18 TRBJ1-1 CDR3: CASSHSGTAYTEAFF
B28: 6808 (TCR)
alpha TRAV17 TRAJ45 CDR3: CATKRGADGLTF
beta TRBV6-5 TRBJ1-2 CDR3: CASSYGGDVYGYTF
B29: 317 (TCR)
alpha TRAV12-3 TRAJ33 CDR3: CAMRSNYQLIW
beta TRBV6-5 TRBJ2-7 CDR3: CASSYAQGEQYF
B30: 3936 (TCR)
alpha TRAV12-3 TRAJ33 CDR3: CAMRSNYQLIW
beta TRBV27 TRBJ2-3 CDR3: CASSPSQGTQYF
B31: 225 (TCR)
alpha TRAV12-2 TRAJ41 CDR3: CAVGNSGYALNF
beta TRBV11-2 TRBJ2-1 CDR3: CASLEGPGNEQFF
B32: 8915 (TCR)
alpha TRAV29/DV5 TRAJ49 CDR3: CAAWSRGTGNQFYF
beta TRBV20-1 TRBJ2-1 CDR3: CSARDRWEGRTNEQFF
B33: 10813 (TCR)
alpha TRAV3 TRAJ45 CDR3: CAVRDSGGGADGLTF
beta TRBV29-1 TRBJ2-2 CDR3: CSVPGLVFPGELFF
B34: 5251 (TCR)
alpha TRAV12-2 TRAJ53 CDR3: CAVNGGGGSNYKLTF
beta TRBV29-1 TRBJ2-7 CDR3: CSVGTGWPYEQYF
B35: 6743 (TCR)
alpha TRAV5 TRAJ15 CDR3: CAGSRTGTALIF
beta TRBV27 TRBJ2-6 CDR3: CASSTGIVTGANVLTF
B36: 5245 (TCR)
alpha TRAV30 TRAJ34 CDR3: CGTEIRGKLIF
beta TRBV27 TRBJ1-5 CDR3: CASSLGFPNQPQHF
B37: 2123 (TCR)
alpha TRAV14/DV4 TRAJ43 CDR3: CAMRDLGDMRF
beta TRBV27 TRBJ1-2 CDR3: CASSFWDRRYGYTF
B38: 11253 (TCR)
alpha TRAV21 TRAJ40 CDR3: CAVRGGFGSGTYKYIF
beta TRBV28 TRBJ1-2 CDR3: CASRTTRANYGYTF
B39: 6844 (TCR)
alpha TRAV12-3 TRAJ33 CDR3: CAGRSNYQLIW
beta TRBV30 TRBJ2-7 CDR3: CAWSPSGSPLEQYF
B40: 8483 (TCR)
alpha TRAV21 TRAJ20 CDR3: CAVYFRSNDYKLSF
beta TRBV20-1 TRBJ2-7 CDR3: CSATGTVNYEQYF
B41: 1735 (TCR)
alpha TRAV21 TRAJ11 CDR3: CAVTRGGYSTLTF
beta TRBV12-3 TRBJ2-1 CDR3: CASSLGTGGIDEQFF
B42: 2997 (TCR)
alpha TRAV9-2 TRAJ9 CDR3: CALSALNTGGFKTIF
beta TRBV20-1 TRBJ1-1 CDR3: CSASGLTRDSPLNTEAFF
B43: 10832 (TCR)
alpha TRAV12-2 TRAJ53 CDR3: CAVNPRGGGSNYKLTF
beta TRBV29-1 TRBJ2-7 CDR3: CSAQTAWPYEQYF
B44: 5458 (TCR)
alpha TRAV29/DV5 TRAJ47 CDR3: CAATGGNKLVF
beta TRBV5-5 TRBJ2-7 CDR3: CASSHPLGVSSYEQYF
B45: 5576.2 (TCR)
alpha TRAV12-3 TRAJ49 CDR3: CAMKRDQFYF
beta TRBV6-2 TRBJ2-7 CDR3: CASRTIDLLAGEYEQYF
B46: 11155 (TCR)
alpha TRAV16 TRAJ37 CDR3: CALNSNTGKLIF
beta TRBV27 TRBJ2-1 CDR3: CASSSFLLAGGGGNSNEQFF
B47: 386 (TCR)
alpha TRAV21 TRAJ52 CDR3: CAVRPGRGTSYGKLTF
beta TRBV19 TRBJ2-3 CDR3: CASSMGAGGAADTQYF
B48: 4386 (TCR)
alpha TRAV14/DV4 TRAJ10 CDR3: CAKAGGGNKLTF
beta TRBV7-6 TRBJ2-1 CDR3: CASSLTTGQGPHNEQFF
B49: 11151 (TCR)
alpha TRAV12-2 TRAJ53 CDR3: CAVNSGGSGGSNYKLTF
beta TRBV29-1 TRBJ2-7 CDR3: CSAQQGWPYEQYF
B50: 6319 (TCR)
alpha TRAV21 TRAJ22 CDR3: CAVKTSGSARQLTF
beta TRBV27 TRBJ2-3 CDR3: CASSSPPISVATDTQYF
B51: 841.2 (TCR)
alpha TRAV25 TRAJ38 CDR3: CAGPINAGNNRKLIW
beta TRBV6-5 TRBJ2-7 CDR3: CASSLDRVRGNSYEQYF
B52: 1361 (TCR)
alpha TRAV12-1 TRAJ4 CDR3: CVVTGFSGGYNKLIF
beta TRBV14 TRBJ1-4 CDR3: CASSLVRGGFEKLFF
B53: 7734 (TCR)
alpha TRAV21 TRAJ29 CDR3: CAVRAGNTPLVF
beta TRBV6-2 TRBJ1-1 CDR3: CASSYTTGTVIPNTEAFF
B54: 11949 (TCR)
alpha TRAV35 TRAJ36 CDR3: CAGQLETGANNLFF
beta TRBV10-3 TRBJ2-3 CDR3: CAINPGTSGRWGTDTQYF
B55: 684 (TCR)
alpha TRAV38-1 TRAJ31 CDR3: CAFMKLGNNARLMF
beta TRBV10-3 TRBJ1-5 CDR3: CAISGPEINQPQHF
B56: 509 (TCR)
alpha TRAV12-1 TRAJ36 CDR3: CVVTDLFF
beta TRBV27 TRBJ2-2 CDR3: CASSPRTGVAGELFF
B57: 763 (TCR)
alpha TRAV19 TRAJ32 CDR3: CALRYGGATNKLIF
beta TRBV7-6 TRBJ1-2 CDR3: CASSLEGVGGYTF
B58: 475 (TCR)
alpha TRAV3 TRAJ40 CDR3: CAVSGPTSGTYKYIF
beta TRBV5-5 TRBJ1-5 CDR3: CASSLWDGGNQPQHF
B59: 11751 (TCR)
alpha TRAV21 TRAJ49 CDR3: CAVRPPGNQFYF
beta TRBV6-4 TRBJ2-1 CDR3: CASSPVGTQGYNEQFF
B60: 4350 (TCR)
alpha TRAV29/DV5 TRAJ42 CDR3: CAASLNYGGSQGNLIF
beta TRBV19 TRBJ1-1 CDR3: CASSSKDITVTEAFF
B61: 2495 (TCR)
alpha TRAV19 TRAJ23 CDR3: CALRIYNQGGKLIF
beta TRBV5-1 TRBJ2-1 CDR3: CASSTGLAGMSSYNEQFF

Molecular target: T1, A*01/LTD peptide on A*01/LTD
Test: activation reporter or marker

| Binder | binding result |
| --- | --- |
| B1 | recognises |
| B2 | recognises |
| B3 | recognises |
| B4 | recognises |
| B5 | recognises |
| B6 | recognises |
| B7 | recognises |
| B8 | recognises |
| B9 | recognises |
| B10 | recognises |
| B11 | recognises |
| B12 | recognises |
| B13 | recognises |
| B14 | recognises |
| B15 | recognises |
| B16 | recognises |
| B17 | recognises |
| B18 | recognises |
| B19 | recognises |
| B20 | recognises |
| B21 | recognises |

| Binder | binding result |
| --- | --- |
| B22 | recognises |
| B23 | recognises |
| B24 | recognises |
| B25 | recognises |
| B26 | recognises |
| B27 | recognises |
| B28 | recognises |
| B29 | recognises |
| B30 | recognises |
| B31 | recognises |
| B32 | recognises |
| B33 | recognises |
| B34 | recognises |
| B35 | recognises |
| B36 | recognises |
| B37 | no recognition |
| B38 | recognises |
| B39 | recognises |
| B40 | recognises |
| B41 | recognises |
| B42 | recognises |

| Binder | binding result |
| --- | --- |
| B43 | recognises |
| B44 | recognises |
| B45 | recognises |
| B46 | recognises |
| B47 | recognises |
| B48 | recognises |
| B49 | recognises |
| B50 | recognises |
| B51 | recognises |
| B52 | recognises |
| B53 | recognises |
| B54 | recognises |
| B55 | recognises |
| B56 | recognises |
| B57 | recognises |
| B58 | recognises |
| B59 | recognises |
| B60 | no recognition |
| B61 | recognises |
